# B1: Serine/threonine-protein kinase RIM15 (Saccharomyces cerevisiae), P43565 (parent)
# chain: MFNRSNTAGGSQAMKEGLGINKLSPISSNSNPSSLTSSNYEKYLQLATEKNPCMILELELDGKVRYGSPQWNTITGVADDSGSSPTYIADLILGSDQDKGVFQKATDMLLMNDDTSCTITFKIKAADYEGSAGCDDESTITTLEARGILIRDGHTQLPSHTMWIVKPRTNDWSDFYANEDAQDDMVIQLSDNCDDIDIQLPEEFAKTLGFGAKIFVQYLKRIRLEMIIDEFNLPLPKMELCRVCENFVPVWWLETHSQSCVCEHRTESLIQLLHDNLLEQQAILANFTKDSEYKGSQIQVRSNNFLNQVLDSLRELCQDAIDINPSEMVPDLYHSLSTFPQDNGNNNNNNNNNNNNNNALLDQFPIQKDTVSLNSYFQFSPRTNHNIQNVTSWQSRFFLNDDQDPGLALLIHDTLDLARKKVDAVLRLDNAMTYSLKIKNEVNNYVVQLIREQIEINKHAILTHPMNLRSSSIFHSPLPQIHSQQPEAENLIYSSSTPLQVQHDQCASFEAPSKSHLEPIPFPVSSIEETPTANDIRHPSPLPRSCSNTVMKLPTPRRKLDSNGLFSDAYLNADIIPNPSIESTISIDRDNNTNSRGSSMKQYGIGEATDSRTSNSERPSSSSSRLGIRSRSITPRQKIEYSHVDNDDRTNEMLSRDKDSLQPQPSVDTTITSSTQATTTGTKTNSNNSTNSVLPKLMTSISLTPRRGSPSFGNLASHSMQQTNSFKLIHDKSPISSPFTFSKDFLTPEQHPSNIARTDSINNAMLTSPNMPLSPLLLATNQTVKSPTPSIKDYDILKPISKGAYGSVYLARKKLTGDYFAIKVLRKSDMIAKNQVTNVKSERAIMMVQSDKPYVARLFASFQNKDNLFLVMEYLPGGDLATLIKMMGYLPDQWAKQYLTEIVVGVNDMHQNGIIHHDLKPENLLIDNAGHVKLTDFGLSRAGLIRRHKFVPHKSSLSISSTLPIDNPANNFTMNNNNSNHSQLSTPDSFTSDHKQYNRSKKSSLGQQYEHSEYSSTSNSHSMTPTPSTNTVVYPSYYRGKDRSHGSSNIDLPASLRRSESQLSFSLLDISRSSTPPLANPTNSNANNIMRRKSLTENKSFSNDLLSSDAIAATNTNINSNNNISLSPAPSDLALFYPDDSKQNKKFFGTPDYLAPETIEGKGEDNKQCDWWSVGCIFFELLLGYPPFHAETPDAVFKKILSGVIQWPEFKNEEEEREFLTPEAKDLIEKLLVVDPAKRLGAKGIQEIKDHPYFKNVDWDHVYDEEASFVPTIDNPEDTDYFDLRGAELQDFGDDIENDNANILFGKHGINTDVSELSAANLSPPLNHKNILSRKLSMSNTTNRSSNNSNSSVHDFGAHTPVNKLSIASVLESVPQETGYITPNGTGTTTTSAKNSPNLKNLSLAIPPHMRDRRSSKLNDSQTEFGSFNFRNLSALDKANKDAINRLKSEHFSEQPGVHRRTSSASLMGSSSDGSVSTPGSNASNTTSGGKLKIHKPTISGSPSTFGTFPKTFLRSDSFSTRSYSPERSISIDSSTLSRKGSIIGDNQQTTANSSDSPTMTKFKSPLSPANTTTVSSYFSRQRVLSKSFSQRTNSSDLSAEESDRLQAISRVNSLRNRRRSGRKSSSTSEIGYHMDVLVCEPIPIHRYRVTKDLENLGCTVVSVGAGDELVSRATSGVSFDLIMTALKLPKLGAIDIVQLLKQTNGANSTTPIVAITNYFQEAATSRVFDDVLEKPVKLDELKKLVAKYALKKSQEDEEHTILSDSDETH
# B2: Serine/threonine-protein kinase RIM15 (Saccharomyces cerevisiae), P43565 (parent)
# chain: B1 chain
# partner: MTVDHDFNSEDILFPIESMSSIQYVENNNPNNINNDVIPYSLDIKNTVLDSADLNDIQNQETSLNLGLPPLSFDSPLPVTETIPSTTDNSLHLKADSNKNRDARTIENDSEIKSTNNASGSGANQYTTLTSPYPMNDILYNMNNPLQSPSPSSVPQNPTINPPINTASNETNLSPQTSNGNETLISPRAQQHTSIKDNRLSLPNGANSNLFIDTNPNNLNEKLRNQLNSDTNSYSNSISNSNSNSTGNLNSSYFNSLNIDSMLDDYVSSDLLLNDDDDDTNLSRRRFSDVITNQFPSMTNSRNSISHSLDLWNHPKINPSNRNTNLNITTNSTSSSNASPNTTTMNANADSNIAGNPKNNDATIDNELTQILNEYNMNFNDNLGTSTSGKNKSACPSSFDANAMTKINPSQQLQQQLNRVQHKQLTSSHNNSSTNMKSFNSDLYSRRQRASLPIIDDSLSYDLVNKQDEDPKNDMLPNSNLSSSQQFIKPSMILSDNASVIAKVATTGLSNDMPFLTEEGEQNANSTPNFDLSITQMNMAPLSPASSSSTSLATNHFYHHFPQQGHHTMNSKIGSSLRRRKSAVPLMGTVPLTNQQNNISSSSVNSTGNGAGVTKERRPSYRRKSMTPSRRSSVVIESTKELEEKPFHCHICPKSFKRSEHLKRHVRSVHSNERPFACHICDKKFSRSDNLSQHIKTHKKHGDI
# B3: Serine/threonine-protein kinase RIM15 (Saccharomyces cerevisiae), P43565 (parent)
# chain: B1 chain
# partner: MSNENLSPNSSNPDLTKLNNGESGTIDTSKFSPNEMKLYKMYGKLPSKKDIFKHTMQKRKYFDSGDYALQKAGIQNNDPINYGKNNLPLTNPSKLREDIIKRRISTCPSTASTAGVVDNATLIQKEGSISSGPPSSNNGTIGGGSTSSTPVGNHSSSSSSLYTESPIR
# Variants of: B1
# Settings: with hsf_yeast HSF1, P10961
# hsf_yeast HSF1, P10961, sequence (P10961 whole entry): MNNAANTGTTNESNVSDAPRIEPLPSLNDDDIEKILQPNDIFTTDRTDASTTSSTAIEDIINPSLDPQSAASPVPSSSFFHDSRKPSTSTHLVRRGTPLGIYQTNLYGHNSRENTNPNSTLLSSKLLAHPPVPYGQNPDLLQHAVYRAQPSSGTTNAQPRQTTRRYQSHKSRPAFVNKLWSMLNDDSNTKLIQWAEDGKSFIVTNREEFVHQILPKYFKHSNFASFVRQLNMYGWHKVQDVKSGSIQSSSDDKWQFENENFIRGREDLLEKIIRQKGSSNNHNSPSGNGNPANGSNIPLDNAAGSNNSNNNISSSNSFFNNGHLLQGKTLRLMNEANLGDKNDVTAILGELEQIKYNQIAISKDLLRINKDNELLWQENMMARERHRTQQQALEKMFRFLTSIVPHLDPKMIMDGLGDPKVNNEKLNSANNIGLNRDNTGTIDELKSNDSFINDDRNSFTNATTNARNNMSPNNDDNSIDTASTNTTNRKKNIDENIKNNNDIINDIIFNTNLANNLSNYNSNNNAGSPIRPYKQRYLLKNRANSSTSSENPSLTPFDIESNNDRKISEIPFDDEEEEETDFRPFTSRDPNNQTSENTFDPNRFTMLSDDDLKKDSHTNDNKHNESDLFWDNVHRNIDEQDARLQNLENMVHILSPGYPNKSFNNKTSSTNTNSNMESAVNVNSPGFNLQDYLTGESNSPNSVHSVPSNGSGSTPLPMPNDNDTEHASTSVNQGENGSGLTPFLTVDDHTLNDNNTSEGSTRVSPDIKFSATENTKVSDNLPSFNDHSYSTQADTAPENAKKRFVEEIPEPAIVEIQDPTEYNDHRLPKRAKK
row,Variant,effect of a mutation on the interaction
1,K823Y;C1176Y,disrupting interaction

# Variants of: B2
# Settings: with msn2_yeast MSN2, P33748
row,Variant,effect of a mutation on the interaction
1,K823Y;C1176Y,disrupting interaction

# Variants of: B3
# Settings: with igo1_yeast IGO1, P53897
row,Variant,effect of a mutation on the interaction
1,K823Y;C1176Y,disrupting interaction
